Results taken from publication PMC7376022, “ARHGAP10, which encodes Rho GTPase-activating protein 10, is a novel gene for schizophrenia risk” (Translational Psychiatry, 2020).

Target: T1, GST-RhoA (p.Q63L) (UniProt P61586 1-193, p.Q63L)
T1 construct: RhoA, small GTPase, constitutively active mutant Q63L; also called GST-RhoA (Q63L); constitutively active RhoA; source: expressed in HEK293 cells
Test: pull-down; GST binding assay; GST-RhoA proteins as bait, GFP-tagged ARHGAP10 as prey; input and bound proteins on immunoblots, densitometry with Odyssey Clx; three independent experiments

T1 sequence (P61586 whole entry Q63L): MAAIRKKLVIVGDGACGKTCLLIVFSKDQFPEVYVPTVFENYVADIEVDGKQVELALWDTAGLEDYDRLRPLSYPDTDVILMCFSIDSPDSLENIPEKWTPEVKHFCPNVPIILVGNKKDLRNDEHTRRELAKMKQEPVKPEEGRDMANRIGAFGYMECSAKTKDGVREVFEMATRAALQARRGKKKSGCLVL

band intensity percentage relative to the corresponding bait: 15.8%
B1: GFP-tagged human ARHGAP10 (p.S490P) mutant (natural protein, UniProt A1A4S6 1-786, looked up)
chain: MGLQPLEFSDCYLDSPWFRERIRAHEAELERTNKFIKELIKDGKNLIAATKSLSVAQRKFAHSLRDFKFEFIGDAVTDDERCIDASLREFSNFLKNLEEQREIMALSVTETLIKPLEKFRKEQLGAVKEEKKKFDKETEKNYSLIDKHLNLSAKKKDSHLQEADIQVEQNRQHFYELSLEYVCKLQEIQERKKFEFVEPMLSFFQGMFTFYHQGHELAKDFNHYKMELQINIQNTRNRFEGTRSEVEELMNKIRQNPKDHKRASQFTAEGYLYVQEKRPAPFGSSWVKHYCMYRKAAKKFNMIPFEHRSGGKLGDGEVFFLKECTKRHTDSIDRRFCFDIEAADRPGVSLTMQAFSEEERKQWLEALGGKEALSHSFNTAIIPRPEGNAQLDKMGFTIIRKCISAVETRGINDQGLYRVVGVSSKVQRLLSMLMDVKTCNEVDLENSADWEVKTITSALKQYLRSLPEPLMTYELHGDFIVPAKSGSPEPRVNAIHFLVHKLPEKNKEMLDILVKHLTNVSNHSKQNLMTVANLGVVFGPTLMRPQEETVAALMDLKFQNIVVEILIENHEKIFRTPPDTTFPEPTCLSASPPNAPPRQSKRQGQRTKRPVAVYNLCLELEDGDNPYPSKEDTPTSSLDSLSSPSPVTTAVPGPPGPDKNHLLADGGSFGDWASTIPGQTRSSMVQWLNPQSPTTTSSNSAVTPLSPGSSPFPFSPPATVADKPPESIRSRKARAVYPCEAEHSSELSFEIGAIFEDVQTSREPGWLEGTLNGKRGLIPQNYVKLL
notes: also called ARHGAP10 (p.S490P)-GFP; source: expressed in HEK293 cells
